Patent US20250352661A1 (MYTHIC THERAPEUTICS, published 2025)
Positions count from the first letter of the chain named. Numbers in names are those of the source.

T1: Human LRRC15 Protein, His Tag, Acro Biosystems (human, UniProt Q8TF66 22-538, limits assumed)
T1 construct: not shown: His tag
T1 sequence (looked up): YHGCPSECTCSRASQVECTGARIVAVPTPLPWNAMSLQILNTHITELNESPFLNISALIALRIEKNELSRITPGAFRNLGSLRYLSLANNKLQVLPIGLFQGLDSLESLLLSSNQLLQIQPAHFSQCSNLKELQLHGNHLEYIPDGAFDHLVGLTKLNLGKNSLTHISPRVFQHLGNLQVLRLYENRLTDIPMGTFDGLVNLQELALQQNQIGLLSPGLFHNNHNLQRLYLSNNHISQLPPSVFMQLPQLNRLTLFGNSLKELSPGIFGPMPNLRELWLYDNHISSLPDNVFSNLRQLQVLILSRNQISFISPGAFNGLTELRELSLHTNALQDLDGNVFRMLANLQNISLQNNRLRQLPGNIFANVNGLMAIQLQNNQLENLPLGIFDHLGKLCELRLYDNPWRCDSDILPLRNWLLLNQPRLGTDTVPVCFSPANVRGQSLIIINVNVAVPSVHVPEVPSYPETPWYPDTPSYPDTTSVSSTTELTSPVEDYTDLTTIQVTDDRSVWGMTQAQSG

T2: Human LRRC15 Protein, His Tag (Acro Biosystems) (human, UniProt Q8TF66 22-538, limits assumed)
T2 construct: Bought protein with His tag
T2 sequence (looked up): T1 sequence (looked up)

B1: MYT9508 (antibody, V domains shown)
VH: EVQLVESGGGLVQPGGSLRLSCTASGFSFSSSHWICWVRQAPGKGLEWVGCIYAGSIGSTYYASWAKGRFTISRDTSKNTVYLQMNSLRAEDTAVYYCARAPNDIYNYYFNLWGQGTLVTVSS
VL: EIVMTQSPSTLSASVGDRVIITCQDSENIYNYLAWYQQKPGKAPKLLIYYASTLASGVPSRFSGSGSGAEFTLTISSLQPDDFATYYCQSGYVSKSSTFGQGTKLTVL
notes: also called hu29F1 VL A25D
B2: MYT9526 (antibody, V domains shown)
VH: B1 VH
VL: B1 VL with D25A, S90D
notes: also called hu29F1 VL S90D
B3: MYT9530 (antibody, V domains shown)
VH: B1 VH
VL: B1 VL with D25A, S94D
notes: Humanized 29F1 with VL S94D; captured by anti-human Fc sensor
B4: MYT9533 (antibody, V domains shown)
VH: B1 VH
VL: B1 VL with D25A, S97D
notes: also called hu29F1 VL S97D
B5: MYT9514 (antibody, V domains shown)
VH: B1 VH
VL: B1 VL with D25A, N31D
notes: Humanized 29F1 with VL N31D; captured by anti-human Fc sensor
B6: MYT9519 (antibody, V domains shown)
VH: B1 VH
VL: B1 VL with D25A, A51D
notes: also called hu29F1 VL A51D
B7: MYT9511 (antibody, V domains shown)
VH: B1 VH
VL: B1 VL with D25A, N28D
notes: Humanized 29F1 with VL N28D; captured by anti-human Fc sensor
B8: MYT9525 (antibody, V domains shown)
VH: B1 VH
VL: B1 VL with D25A, Q89D
notes: also called hu29F1 VL Q89D
B9: MYT9520 (antibody, V domains shown)
VH: B1 VH
VL: B1 VL with D25A, S52D
notes: Humanized 29F1 with VL S52D; captured by anti-human Fc sensor
B10: MYT9510 (antibody, V domains shown)
VH: B1 VH
VL: B1 VL with D25A, E27D
notes: Humanized 29F1 with VL E27D; captured by anti-human Fc sensor
B11: MYT9522 (antibody, V domains shown)
VH: B1 VH
VL: B1 VL with D25A, L54D
notes: Humanized 29F1 with VL L54D; captured by anti-human Fc sensor
B12: MYT9509 (antibody, V domains shown)
VH: B1 VH
VL: B1 VL with D25A, S26D
notes: Humanized 29F1 with VL S26D; captured by anti-human Fc sensor
B13: MYT9516 (antibody, V domains shown)
VH: B1 VH
VL: B1 VL with D25A, L33D
notes: also called hu29F1 VL L33D
B14: MYT9532 (antibody, V domains shown)
VH: B1 VH
VL: B1 VL with D25A, S96D
notes: also called hu29F1 VL S96D
B15: MYT9524 (antibody, V domains shown)
VH: B1 VH
VL: B1 VL with D25A, S56D
notes: Humanized 29F1 with VL S56D; captured by anti-human Fc sensor
B16: MYT7912 (antibody, V domains shown)
VH: QQQLVESGGGLVKPGASLTLTCKASGFSFSGSYWICWVRQAPGKGLEWIGCINGGSLDITYYASWAKGRFTISKASSTTVTLQKTSLTAADTATYFCASHTSYTAYGNFYFNLWGPGTLVTVSS
VL: AQVLTQTASPVSAAVGGTVTINCQSSQSVLNNNWLAWYQQKPGQPPKLLIYDASSLASGVPSRFKGSGSGTQFTLTISDLESDDAATYYCQGEFSCGSADCNAFGGGTEVVVKG
notes: rabbit 24D9 VH D100H; chimeric, human constant regions
B17: MYT7915 (antibody, V domains shown)
VH: B16 VH with H100D, Y103H
VL: B16 VL
notes: rabbit 24D9 VH Y103H; chimeric, human constant regions
B18: MYT7913 (antibody, V domains shown)
VH: B16 VH with H100D, T101H
VL: B16 VL
notes: rabbit 24D9 VH T101H; chimeric, human constant regions
B19: MYT7914 (antibody, V domains shown)
VH: B16 VH with H100D, S102H
VL: B16 VL
notes: rabbit 24D9 VH S102H; chimeric, human constant regions
B20: MYT9739 (antibody, V domains shown)
VH: B1 VH
VL: B1 VL with D25A, A51E
notes: Humanized 29F1 with VL A51E; captured by anti-human Fc sensor
B21: MYT9754 (antibody, V domains shown)
VH: B1 VH
VL: B1 VL with D25A, T98E
notes: also called hu29F1 VL T98E
B22: MYT9729 (antibody, V domains shown)
VH: B1 VH
VL: B1 VL with D25A, S26E
notes: also called hu29F1 VL S26E
B23: MYT9740 (antibody, V domains shown)
VH: B1 VH
VL: B1 VL with D25A, S52E
notes: Humanized 29F1 with VL S52E; captured by anti-human Fc sensor
B24: MYT9732 (antibody, V domains shown)
VH: B1 VH
VL: B1 VL with D25A, I29E
notes: also called hu29F1 VL I29E
B25: MYT9752 (antibody, V domains shown)
VH: B1 VH
VL: B1 VL with D25A, S96E
notes: also called hu29F1 VL S96E
B26: MYT9734 (antibody, V domains shown)
VH: B1 VH
VL: B1 VL with D25A, N31E
notes: also called hu29F1 VL N31E
B27: MYT9753 (antibody, V domains shown)
VH: B1 VH
VL: B1 VL with D25A, S97E
notes: also called hu29F1 VL S97E
B28: MYT9736 (antibody, V domains shown)
VH: B1 VH
VL: B1 VL with D25A, L33E
notes: also called hu29F1 VL L33E
B29: MYT9741 (antibody, V domains shown)
VH: B1 VH
VL: B1 VL with D25A, T53E
notes: Humanized 29F1 with VL T53E; captured by anti-human Fc sensor
B30: MYT9738 (antibody, V domains shown)
VH: B1 VH
VL: B1 VL with D25A, Y50E
notes: Humanized 29F1 with VL Y50E; captured by anti-human Fc sensor
B31: MYT9730 (antibody, V domains shown)
VH: B1 VH
VL: B1 VL with D25A, E27A
notes: Humanized 29F1 with VL E27A; captured by anti-human Fc sensor
B32: MYT9745 (antibody, V domains shown)
VH: B1 VH
VL: B1 VL with D25A, Q89E
notes: also called hu29F1 VL Q89E
B33: MYT9744 (antibody, V domains shown)
VH: B1 VH
VL: B1 VL with D25A, S56E
notes: Humanized 29F1 with VL S56E; captured by anti-human Fc sensor

Molecular target: T1, Human LRRC15 Protein, His Tag, Acro …
Test: BLI; dissociation pH 7.4 black, pH 5.4 grey [D00022 FIG. 5B]
Experimental: The resulting diluted supernatants were then captured on an anti-human Fc sensor (Forte Bio). A baseline was established using 1×PBST (50 mM Potassium Phosphate Buffer+150 mM NaCl+0.05% Tween 20) pH 7.4, and the […] was associated with 50 nM of LRRC15 (Human LRRC15 Protein, His Tag, Acro Biosystems) in 1×PBST pH 7.4 for 120 sec to generate an association curve. In the dissociation phase, the antibody-antigen complex on the sensor was exposed to 1×PBST pH 7.4 or pH 5.4, for 300 sec. Association and dissociation phase curves were examined for the starting ABPC antibody (with no substitutions) and each corresponding antibody variant at pH 5.4 and pH 7.4 to inform on two criteria: a) enhanced dissociation (i.e., higher koff values) at pH 5.4 due to histidine substitution compared to the starting ABPC, (with no substitutions), and b) reduced dissociation at pH 7.4 (i.e., lower koff values) compared to pH 5.4 in the antibody variant itself and with the starting ABPC (with no substitutions).
Briefly, CDRs in the 15G7 light chain were identified using the methods described in Example 9, and for each CDR, residues falling under either or both Kabat and IMGT CDR definitions were called as CDR residues. To generate pH-dependent sequence variants, individual amino acid residues within the light chain CDRs were systematically substituted with a histidine, one at a time (rabbit, MYT6122-6151). Desirable mutations were transferred to a humanized framework MYT8413-8487). After allowing for four days of protein expression, cell culture supernatants were collected, quantified by SDS-PAGE analysis, and the pH dependence of the variant was evaluated using biolayer interferometry (BLI) on an Octet RED 96e instrument (as described in Example 9). […]

binding result | Binder
binds | B1
binds | B2
binds | B3
binds | B4
binds | B5
binds | B6
binds | B7
binds | B8
binds | B9
binds | B10
binds | B11
binds | B12
binds | B13
binds | B14
binds | B15

Molecular target: T2, Human LRRC15 Protein, His Tag (Acro …)
Test: BLI; dissociation pH 7.4 black, pH 5.4 grey [2/2); D00014 FIG. 2B (2/2]

binding result | Binder
no binding (tested: 50 nM LRRC15) | B16
no binding (tested: 50 nM LRRC15) | B17
binds | B18
binds | B19

Molecular target: T1, Human LRRC15 Protein, His Tag, Acro …
Test: BLI; dissociation pH 7.4 black, pH 5.4 grey [D00028 FIG. 7B]

binding result | Binder
binds | B20
binds | B21
binds | B22
binds | B23
binds | B24
binds | B25
binds | B26
binds | B27
binds | B28
binds | B29
binds | B30
binds | B31
binds | B32
binds | B33
